Measured values reported in publication PMC3505976.

T1: hIghmbp2hd (helicase core) (human (Homo sapiens), UniProt P38935 1-652)
T1 sequence: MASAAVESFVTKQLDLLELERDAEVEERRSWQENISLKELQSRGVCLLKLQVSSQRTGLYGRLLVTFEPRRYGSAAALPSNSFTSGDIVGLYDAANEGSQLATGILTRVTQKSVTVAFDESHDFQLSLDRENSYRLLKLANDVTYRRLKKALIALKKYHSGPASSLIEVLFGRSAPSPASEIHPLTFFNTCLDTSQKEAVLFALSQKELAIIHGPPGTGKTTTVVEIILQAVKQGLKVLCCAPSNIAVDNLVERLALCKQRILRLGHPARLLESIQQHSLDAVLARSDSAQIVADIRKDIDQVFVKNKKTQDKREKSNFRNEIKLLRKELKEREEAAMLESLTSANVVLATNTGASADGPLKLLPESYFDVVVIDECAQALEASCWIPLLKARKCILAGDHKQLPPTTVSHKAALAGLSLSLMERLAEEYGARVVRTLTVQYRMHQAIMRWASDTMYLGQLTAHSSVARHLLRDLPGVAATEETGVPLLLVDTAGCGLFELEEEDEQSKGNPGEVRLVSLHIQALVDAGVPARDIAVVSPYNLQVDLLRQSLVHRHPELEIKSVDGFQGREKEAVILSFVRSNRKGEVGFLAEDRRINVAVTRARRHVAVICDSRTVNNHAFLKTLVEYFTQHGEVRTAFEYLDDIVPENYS

T2: mIghmbp2hd-R3H (helicase core + R3H) (mouse, UniProt P40694 1-786)
T2 sequence: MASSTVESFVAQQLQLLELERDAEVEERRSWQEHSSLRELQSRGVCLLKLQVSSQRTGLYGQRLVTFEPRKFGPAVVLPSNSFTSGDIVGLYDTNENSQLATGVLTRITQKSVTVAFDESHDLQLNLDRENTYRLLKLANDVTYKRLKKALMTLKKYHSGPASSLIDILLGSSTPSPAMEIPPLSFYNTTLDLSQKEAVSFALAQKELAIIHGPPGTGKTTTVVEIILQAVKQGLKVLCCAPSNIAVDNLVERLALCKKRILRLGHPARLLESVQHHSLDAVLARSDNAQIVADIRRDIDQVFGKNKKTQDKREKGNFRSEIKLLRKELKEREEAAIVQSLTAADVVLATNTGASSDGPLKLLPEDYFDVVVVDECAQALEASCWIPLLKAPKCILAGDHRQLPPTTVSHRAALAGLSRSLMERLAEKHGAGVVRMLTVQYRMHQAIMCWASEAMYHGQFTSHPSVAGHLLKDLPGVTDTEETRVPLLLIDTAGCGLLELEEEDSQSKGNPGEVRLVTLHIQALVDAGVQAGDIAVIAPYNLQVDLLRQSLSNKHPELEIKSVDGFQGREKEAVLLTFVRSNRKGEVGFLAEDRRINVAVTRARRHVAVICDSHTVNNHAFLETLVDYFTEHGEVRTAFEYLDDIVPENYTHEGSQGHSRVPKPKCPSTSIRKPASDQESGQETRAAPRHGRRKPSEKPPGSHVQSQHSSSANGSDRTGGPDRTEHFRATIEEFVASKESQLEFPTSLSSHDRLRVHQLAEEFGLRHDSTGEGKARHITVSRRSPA

B1: A10 ssRNA (ssRNA)
RNA: AAAAAAAAAA
B2: U15 ssRNA (ssRNA)
RNA: UUUUUUUUUUUUUUU

How the values were obtained:
[1] = target: T1, hIghmbp2hd (helicase core); assay: crystal structure
[2] = target: T2, mIghmbp2hd-R3H (helicase core + R3H); assay: fluorescence anisotropy
[3] = target: T1, hIghmbp2hd (helicase core); assay: fluorescence anisotropy

Row | Binder | binding result [1] | Kd [2] | Kd [3]
1 | B1 | binds |  | 
2 | B2 |  | 107 ± 29 nM | 1080 ± 130 nM
